We go through 1 substance from patent EP4644412A1.

This test addresses TPO receptor (TPOR). The test can be described thus: cell-based or functional assay.

In turn, “Human TPO synthetic protein (rhTPO) (from UniProt P40225 22-353) (ligand)” had an EC50 of relative cell proliferation of BaF3/MPL cells (Cell Titer-Glo, 48 h) of 1.7 ng/mL.
